Substrate: Nc1nc2c(ncn2[C@@H]2O[C@H](COP(=O)(O)OP(=O)(O)OP(=O)(O)O)[C@@H](O)[C@H]2O)c(=O)[nH]1
Assay: purified protein, by the assay type
Assay type: biochemical
Experimental: Nucleotides were detected at 254 nm. […] All measurements were performed in triplicate.

B1: ObgE (Escherichia coli K-12) (protein)
chain: MKFVDEASILVVAGDGGNGCVSFRREKYIPKGGPDGGDGGDGGDVWMEADENLNTLIDYRFEKSFRAERGQNGASRDCTGKRGKDVTIKVPVGTRVIDQGTGETMGDMTKHGQRLLVAKGGWHGLGNTRFKSSVNRTPRQKTNGTPGDKRELLLELMLLADVGMLGMPNAGKSTFIRAVSAAKPKVADYPFTTLVPSLGVVRMDNEKSFVVADIPGLIEGAAEGAGLGIRFLKHLERCRVLLHLIDIDPIDGTDPVENARIIISELEKYSQDLATKPRWLVFNKIDLLDKVEAEEKAKAIAEALGWEDKYYLISAASGLGVKDLCWDVMTFIIENPVVQAEEAKQPEKVEFMWDDYHRQQLEEIAEEDDEDWDDDWDEDDEEGVEFIYKR
notes: full length, N-terminally His6-tagged (pET28a), nucleotide-free after alkaline phosphatase treatment
Km: 4 µM
